The values below come from patent US12404607.

The target in assay [1] is SARS-CoV-2 spike receptor binding domain (RBD) antigen (SARS-CoV-2) (UniProt P0DTC2). In words: ELISA, coated RBD. (ELISA stands for enzyme-linked immunosorbent assay.)
The target in a further assay is SARS CoV RBD (SARS-CoV) (UniProt P59594). In words: ELISA, antigen coated at 2 ug/mL.
The target in assay [2] is SARS-CoV-2 spike on GFP reporter pseudotype virus (Integral Molecular) (SARS-CoV-2) (UniProt P0DTC2). Nature of the assay: cell-based or functional assay.
In assay [3] the target is SARS-CoV-2 spike S1 antigen (SARS-CoV-2) (UniProt P0DTC2). In words: ELISA, coated S1.
Assay [4] addresses SARS CoV-2 Spike RBD protein of the Spike:ACE2 blocking ELISA (BPS Bioscience) (SARS-CoV-2) (UniProt P0DTC2). Nature of the assay: competition ELISA: RBD coated, test article, then ACE2-His (competitor).

Broadly, the EC50 is the concentration that produces a half-maximal response. Higher therefore signals a less potent agent. In general, IC50 refers to the concentration at which inhibition is half-maximal. Low readings indicate inhibition by little substance, high ones a need for much substance. With “rCIG (recombinant coronavirus-2 immune globulin; recombinant anti-coronavirus 19 hyperimmune gammaglobulin)”, the EC50 in assay [1] was determined as 0.1 µg/mL; with SARS CoV RBD (SARS-CoV) it was 0.6 µg/mL; in assay [3] it was 0.092 µg/mL. This substance came in with a CoV-2 pseudotype neutralization IC50 in assay [2] of 0.43 µg/mL. For the same substance, in assay [4], the IC50 is 2.2 µg/mL.

As to “SARS CoV mAb [CR3022] (Absolute Antibody)”, the concentration giving a half-maximal response (EC50) turned out to be 0.088 µg/mL in assay [1] and 0.078 µg/mL in assay [3]. The substance also returned a CoV-2 pseudotype neutralization IC50 in assay [2] of 100 µg/mL.

With “SARS CoV-2 mAb [SAD-S35] (Acro Biosystems) (antibody)”, the figures for the EC50 in assay [1] and in assay [3] were 0.057 µg/mL and 0.058 µg/mL, respectively. Besides, the CoV-2 pseudotype neutralization IC50 in assay [2] was determined as 0.26 µg/mL. For the same substance, the IC50 in assay [4] is 1.1 µg/mL.
